The term Kd denotes a measure of binding affinity in units of concentration.

T1: biotin-labeled 16-mer PIK3C3 S2E LIR peptide (human, also: biotin label, place not given here)
T1 chain: SEPILTEFELVKVPDP

T2: biotin-labeled 16-mer BECN1 S2E LIR peptide (human, also: biotin label, place not given here)
T2 chain: STEEANEFTLIGEASD

B1: recombinant LC3C (biolayer interferometry) (natural protein, UniProt Q9BXW4 1-126, looked up)
chain: MPPPQKIPSVRPFKQRKSLAIRQEEVAGIRAKFPNKIPVVVERYPRETFLPPLDKTKFLVPQELTMTQFLSIIRSRMVLRATEAFYLLVNNKSLVSMSATMAEIYRDYKDEDGFVYMTYASQETFG
notes: LC3C; construct of the BLI experiment not described; source: recombinant
B2: PIK3C3 242-259 18-mer array peptide, L252I (peptide)
peptide: ESSPILTSFEIVKVPDPQ
notes: PIK3C3, human, amino acids 242-259; source: synthetic peptide, SPOT synthesis on cellulose membrane
B3: PIK3C3 242-259 18-mer array peptide, L252Y (peptide)
peptide: ESSPILTSFEYVKVPDPQ
notes: as for B2
B4: BECN1 89-106 18-mer array peptide, S96G (peptide)
peptide: MSTESANGFTLIGEASDG
notes: BECN1, human, amino acids 89-106; source: synthetic peptide, SPOT synthesis on cellulose membrane
B5: PIK3C3 242-259 18-mer array peptide, wild type (peptide)
peptide: ESSPILTSFELVKVPDPQ
notes: PIK3C3, human, amino acids 242-259; also called PIK3C3 LIR; source: synthetic peptide, SPOT synthesis on cellulose membrane
B6: BECN1 89-106 18-mer array peptide, L99W (peptide)
peptide: MSTESANSFTWIGEASDG
notes: as for B4
B7: PIK3C3 242-259 18-mer array peptide, E251V (peptide)
peptide: ESSPILTSFVLVKVPDPQ
notes: as for B2
B8: BECN1 89-106 18-mer array peptide, S96W (peptide)
peptide: MSTESANWFTLIGEASDG
notes: as for B4
B9: ATG14 428-445 18-mer array peptide, W435Y (peptide)
peptide: ETDLGTDYENLPSPRFCD
notes: ATG14, human, amino acids 428-445; source: synthetic peptide, SPOT synthesis on cellulose membrane
B10: BECN1 89-106 18-mer array peptide, S96D (peptide)
peptide: MSTESANDFTLIGEASDG
notes: as for B4
B11: BECN1 89-106 18-mer array peptide, L99I (peptide)
peptide: MSTESANSFTIIGEASDG
notes: as for B4
B12: ATG14 428-445 18-mer array peptide, W435F (peptide)
peptide: ETDLGTDFENLPSPRFCD
notes: as for B9
B13: BECN1 89-106 18-mer array peptide, I100L (peptide)
peptide: MSTESANSFTLLGEASDG
notes: as for B4
B14: BECN1 89-106 18-mer array peptide, T98C (peptide)
peptide: MSTESANSFCLIGEASDG
notes: as for B4
B15: PIK3C3 242-259 18-mer array peptide, E251I (peptide)
peptide: ESSPILTSFILVKVPDPQ
notes: as for B2
B16: PIK3C3 242-259 18-mer array peptide, L252F (peptide)
peptide: ESSPILTSFEFVKVPDPQ
notes: as for B2
B17: BECN1 89-106 18-mer array peptide, T98E (peptide)
peptide: MSTESANSFELIGEASDG
notes: as for B4
B18: PIK3C3 242-259 18-mer array peptide, L252W (peptide)
peptide: ESSPILTSFEWVKVPDPQ
notes: as for B2
B19: recombinant GABARAP (biolayer interferometry) (natural protein, UniProt O95166 1-117, looked up)
chain: MKFVYKEEHPFEKRRSEGEKIRKKYPDRVPVIVEKAPKARIGDLDKKKYLVPSDLTVGQFYFLIRKRIHLRAEDALFFFVNNVIPPTSATMGQLYQEHHEEDFFLYIAYSDESVYGL
notes: GABARAP; construct of the BLI experiment not described; source: recombinant
B20: ATG14 428-445 18-mer array peptide, E436V (peptide)
peptide: ETDLGTDWVNLPSPRFCD
notes: as for B9
B21: BECN1 89-106 18-mer array peptide, S96A (peptide)
peptide: MSTESANAFTLIGEASDG
notes: as for B4
B22: BECN1 89-106 18-mer array peptide, S96E (peptide)
peptide: MSTESANEFTLIGEASDG
notes: as for B4
B23: ATG14 428-445 18-mer array peptide, wild type (peptide)
peptide: ETDLGTDWENLPSPRFCD
notes: ATG14, human, amino acids 428-445; also called ATG14 LIR; source: synthetic peptide, SPOT synthesis on cellulose membrane
B24: PIK3C3 242-259 18-mer array peptide, L252V (peptide)
peptide: ESSPILTSFEVVKVPDPQ
notes: as for B2
B25: BECN1 89-106 18-mer array peptide, T98V (peptide)
peptide: MSTESANSFVLIGEASDG
notes: as for B4
B26: BECN1 89-106 18-mer array peptide, G101P (peptide)
peptide: MSTESANSFTLIPEASDG
notes: as for B4
B27: PIK3C3 242-259 18-mer array peptide, E251F (peptide)
peptide: ESSPILTSFFLVKVPDPQ
notes: as for B2
B28: BECN1 89-106 18-mer array peptide, F97W (peptide)
peptide: MSTESANSWTLIGEASDG
notes: as for B4
B29: PIK3C3 242-259 18-mer array peptide, V253I (peptide)
peptide: ESSPILTSFELIKVPDPQ
notes: as for B2
B30: ATG14 428-445 18-mer array peptide, E436I (peptide)
peptide: ETDLGTDWINLPSPRFCD
notes: as for B9
B31: BECN1 89-106 18-mer array peptide, S96C (peptide)
peptide: MSTESANCFTLIGEASDG
notes: as for B4
B32: BECN1 89-106 18-mer array peptide, wild type (peptide)
peptide: MSTESANSFTLIGEASDG
notes: BECN1, human, amino acids 89-106; also called BECN1 LIR; source: synthetic peptide, SPOT synthesis on cellulose membrane
B33: BECN1 89-106 18-mer array peptide, T98I (peptide)
peptide: MSTESANSFILIGEASDG
notes: as for B4
B34: BECN1 89-106 18-mer array peptide, G101E (peptide)
peptide: MSTESANSFTLIEEASDG
notes: as for B4
B35: ATG14 428-445 18-mer array peptide, L438F (peptide)
peptide: ETDLGTDWENFPSPRFCD
notes: as for B9
B36: BECN1 89-106 18-mer array peptide, S96T (peptide)
peptide: MSTESANTFTLIGEASDG
notes: as for B4
B37: BECN1 89-106 18-mer array peptide, G101D (peptide)
peptide: MSTESANSFTLIDEASDG
notes: as for B4
B38: PIK3C3 242-259 18-mer array peptide, F250W (peptide)
peptide: ESSPILTSWELVKVPDPQ
notes: as for B2
B39: ATG14 428-445 18-mer array peptide, D434E (peptide)
peptide: ETDLGTEWENLPSPRFCD
notes: as for B9
B40: PIK3C3 242-259 18-mer array peptide, E251L (peptide)
peptide: ESSPILTSFLLVKVPDPQ
notes: as for B2
B41: BECN1 89-106 18-mer array peptide, L99F (peptide)
peptide: MSTESANSFTFIGEASDG
notes: as for B4

Settings in all cases: both partners purified
Assay [1] deals with T1, biotin-labeled 16-mer PIK3C3 S2E LIR …. In words: BLI; biotin-LIR peptides (50 µg/ml) on streptavidin biosensors, Atg8-family protein in solution at different concentrations; Octet Red 96; 25°C; global fit, 1:1 model.
Assay [2] addresses T2, biotin-labeled 16-mer BECN1 S2E LIR …. Described as above.
The target in assay [3] is T3, GST-GABARAPL1 (UniProt Q9H0R8 1-117).
T3 construct: GABARAPL1 (GABA type A receptor associated protein like 1); also called pDest15 (GST)-GABARAPL1; source: E. coli SoluBL21, purified on glutathione-Sepharose 4 Fast Flow beads
In words: peptide or protein array; two-dimensional scan: 18-mer peptides on cellulose membrane, each position replaced with all 20 amino acids; probed with 1 µg/ml GST-GABARAPL1 for 2 h; anti-GST antibody.

In assay [4] the target is B19. In words: BLI; biotin-LIR peptides (50 µg/ml) on streptavidin biosensors, Atg8-family protein in solution at different concentrations; Octet Red 96; 25°C; global fit, 1:1 model. (In general: In BLI a coated tip is dipped into the sample, and binding shifts an interference pattern.)
In assay [5] the target is recombinant GABARAPL1 (biolayer interferometry) (UniProt Q9H0R8 1-117). Described as above.
recombinant GABARAPL1 (biolayer interferometry), sequence (Q9H0R8 whole entry, looked up): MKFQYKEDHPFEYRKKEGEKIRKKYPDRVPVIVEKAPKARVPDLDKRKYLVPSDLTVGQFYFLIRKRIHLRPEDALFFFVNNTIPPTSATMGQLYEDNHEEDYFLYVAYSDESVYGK
For assay [6], the target named is B1. The assay is described as above.

Ends that are not written are not given here.

Regarding B1, the “fold increase in binding over the wild-type LIR peptide” value in assay [1] was 15 fold. For the same molecule, the “fold increase in binding affinity over the wild-type LIR peptide” value in assay [2] worked out at 8 fold. Consider B2, for which the binding result in assay [3] was “binds”.

In the case of B3, the binding result in assay [3] is reported as “binds”.

B4: the binding result in assay [3] was “binds”. As for B5, in assay [3], the binding result was “binds”.

Take ETDLGTDWENLPSPRF (also: biotin label, place not given here) [biotin-labeled 16-mer ATG14 LIR peptide]: the equilibrium dissociation constant (Kd) in assay [4] worked out at 2.85 µM; in assay [5], 1.9 µM; in assay [6], 5.85 µM.

Turning to B6, the binding result in assay [3] is recorded as “binds”. On to B7, for which the binding result in assay [3] is recorded as “binds”.

For the molecule B8, in assay [3], the binding result is “binds”.

B9: the binding result in assay [3] is recorded as “binds”. In the case of B10, the binding result in assay [3] is given as “binds”.

Consider B11, for which the binding result in assay [3] was “binds”. On to B12, for which the binding result in assay [3] is “binds”. B13: the binding result in assay [3] is “binds”.

With STESANSFTLIGEASD (also: biotin label, place not given here) [biotin-labeled 16-mer BECN1 LIR peptide], the dissociation constant (Kd) came to 10.5 µM in assay [4] and 7.95 µM in assay [5]. Turning to B14, in assay [3], the binding result was “binds”. On to B15, for which the binding result in assay [3] was “binds”. Regarding B16, the binding result in assay [3] was “binds”. B17: the binding result in assay [3] is “binds”. With B18, in assay [3], the binding result was “binds”.

Turning to B19, the “fold increase in binding over the wild-type LIR peptide” value in assay [1] turned out to be 17 fold. Also, the “fold increase in binding affinity over the wild-type LIR peptide” value in assay [2] was 3 fold. As to B20, in assay [3], the binding result was “binds”.

As to B21, the binding result in assay [3] is given as “binds”. On the same count and under the same terms, next, B22: “binds”.

For B23, in assay [3], the binding result is reported as “binds”. For the molecule B24, in assay [3], the binding result is “binds”.

In the case of B25, the binding result in assay [3] is given as “binds”. The same measure, in the same setting: then B26, with “binds”. Still for that read-out and setting: next, B27: “binds”; B28: “binds”; B29: “binds”. The same measure, in the same setting: then B30, with “binds”; and B31, with “binds”; and B32, with “binds”.

Turning to SSPILTSFELVKVPDP (also: biotin label, place not given here) [biotin-labeled 16-mer PIK3C3 LIR peptide], the dissociation constant Kd in assay [4] came out at 49.5 µM; in assay [5], 65 µM. As to B33, the binding result in assay [3] is given as “binds”.

As to B34, the binding result in assay [3] is given as “binds”. Consider B35, for which, in assay [3], the binding result is “binds”. As for B36, the binding result in assay [3] is reported as “binds”.

Take B37: the binding result in assay [3] was “binds”. The same measure, in the same setting: then B38, with “binds”. Take B39: the binding result in assay [3] is “binds”. Turning to B40, in assay [3], the binding result is recorded as “binds”. Turning to B41, in assay [3], the binding result is given as “binds”.

Source of the values: publication PMC6613885 (Autophagy, 2019).
